This test has as its target T1, Ferritin H (frog), wild type, protein nanocage (frog, UniProt P07229 2-176).
T1 sequence (looked up): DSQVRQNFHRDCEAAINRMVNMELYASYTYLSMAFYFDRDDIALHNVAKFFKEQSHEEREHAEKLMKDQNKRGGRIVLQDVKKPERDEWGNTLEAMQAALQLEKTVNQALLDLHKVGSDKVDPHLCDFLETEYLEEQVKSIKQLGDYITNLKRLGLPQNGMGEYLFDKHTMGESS
The experiment in a line: cell-based or functional assay.

The record followed here is patent US20090325869A1 (CHILDREN S HOSPITAL AND RESEARCH CENTER OAKLAND, published 2009).

B1: Peptide 1, synthetic undecapeptide HSNTYYFPKGG (peptide)
peptide: HSNTYYFPKGG
B1: the “rate of ferritin demineralization, fold against wild type ferritin H without peptide” value came out at 3.3 fold.
